In PMC8484680:

Experiments:
[1] = molecular target: PsFucS1, fucoidan active sulfatase (subfamily S1_13) from Pseudoalteromonas sp. MB47 (Pseudoalteromonas sp. MB47); assay: SEC; analytical SEC, HiLoad 16/600 Superdex 200 pg, room temperature, 200 µl of His-tagged PsFucS1 at 6 mg/ml, 50 mM Tris-HCl pH 8.0, 100 mM NaCl; calibrated with standards of 13.7-440 kDa
[2] = molecular target: PsFucS1, fucoidan active sulfatase (subfamily S1_13) from Pseudoalteromonas sp. MB47 (Pseudoalteromonas sp. MB47); assay: crystal structure; X-ray, 2.50 Å, space group P212121, six molecules in the asymmetric unit; crystals grown at 20 °C in 0.1 M sodium acetate pH 4.6, 0.1 M NaCl, 20% PEG 3350; interfaces analysed with PISA

stoichiometry N [1]: 6
stoichiometry N [2]: 6
Substance: PsFucS1, fucoidan active sulfatase (subfamily S1_13) from Pseudoalteromonas sp. MB47 (enzyme)
